Test results published in patent US20110256132A1 (published 2011).

Columns and labels:
[1] = molecular target: T1, mature myostatin (recombinant, dimeric) (mouse polyprotein used for in-house …, UniProt O08689 268-376); assay: BIAcore, low density myostatin surface, antibody analyte, 1:1 model
T1 construct: also called GDF-8; recombinant myostatin
T1 sequence: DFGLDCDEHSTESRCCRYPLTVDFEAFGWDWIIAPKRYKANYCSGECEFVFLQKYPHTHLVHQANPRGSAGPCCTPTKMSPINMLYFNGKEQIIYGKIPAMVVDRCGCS
Procedure: (§1) Purified H0L0, H1L2 and H2L2 bound recombinant myostatin by BIAcore™ Recombinant myostatin was immobilised at three different densities (low, medium and high, to give R-max values of approximately 35, 120 and 350 RU's respectively) onto a BIAcore™ chip. Antibodies were passed over at 256, 64, 16, 4 and 1 nM. 0 nM antibody was used for double referencing and data was fitted to the 1:1 model.

[2] = molecular target: T1, mature myostatin (recombinant, dimeric); assay: BIAcore, high density myostatin surface, antibody analyte, 1:1 model (poor fits)
Procedure: as §1

[3] = molecular target: T1, mature myostatin (recombinant, dimeric); assay: BIAcore, medium density myostatin surface, antibody analyte, 1:1 model (poor fits)
Procedure: as §1

[4] = molecular target: T1, mature myostatin (recombinant, dimeric); assay: BIAcore, low density myostatin surface, methods as in 4.3
[5] = molecular target: T1, mature myostatin (recombinant, dimeric); assay: cell-based or functional assay
[6] = molecular target: T1, mature myostatin (recombinant, dimeric); assay: BIAcore T100 full kinetics, high density myostatin surface, Bivalent model
Procedure: The CDRH3 variants were passed over all three surfaces at 256 nM, 64 nM, 16 nM, 4 nM, 1 nM with a buffer injection (i.e. 0 nM) used for double referencing, regeneration was using 100 mM phosphoric acid. The data was fitted to the Bivalent model inherent to the T100 Biacore machine and was run using HBS-EP at 25° C.

[7] = molecular target: T1, mature myostatin (recombinant, dimeric); assay: competition ELISA, biotinylated myostatin on streptavidin, competitor 10B3
Procedure: (§2) A 96-well ELISA plate was coated at 4° C. overnight with 2.5 μg/ml polyclonal Antibody to Myostatin (R&D Systems AF788). This plate was then washed 3-times in wash buffer (PBS, 0.1% Tween-20) and blocked for 1 hour at room temperature with block solution (PBS, 0.1% Tween-20+1% bovine serum albumin [BSA]). Then, myostatin was added at 1 μg/ml in block buffer during 1 hour followed by 3-times in wash buffer. Antibodies were then titrated out to a suitable concentration range (approximately 10 to 0.01 μg/ml), added to the plate and incubated for 1 hour at room temperature. The plate was then washed 3-times in wash buffer. An anti-human kappa light chain HRP-conjugated antibody (Sigma A7164, used according to the manufacturer's instructions) was used to detect binding of humanized or chimeric antibodies, such as 10B3 chimera (HcLc) or H0L0. The plate was then washed 3-times in wash buffer and developed with an OPD substrate (according to the manufacturer's instructions) and read at 490 nm on a plate reader.
The protocol set out in 6.7 was used but the plates were initially coated at 4° C. overnight with 5 μg/ml of streptavidin. Biotinylated myostatin was added at 0.3 μg/ml block buffer during 1 hour followed by 3-times in wash buffer. 10B3 (final concentration of 0.2 μg/ml) was added into each well and mixed with antibodies titrated out to a suitable concentration range (approximately 10 to 0.01 μg/ml). An anti-mouse HRP-conjugated antibody (DAKO P0260, used according to the manufacturer's instructions) was used to detect binding of the 10B3 antibody.

[8] = molecular target: T1, mature myostatin (recombinant, dimeric); assay: competition ELISA, myostatin captured by polyclonal antibody, competitor 10B3
Procedure: as §2
The protocol set out in 6.7 was used with the addition of 10B3 (final concentration of […]) to each well and mixed with the antibodies titrated out to a suitable concentration range (approximately 10 to 0.01 μg/ml). An anti-mouse HRP-conjugated antibody (DAKO P0260, used according to the manufacturer's instructions) was used to detect binding of the 10B3 antibody.

[9] = molecular target: T1, mature myostatin (recombinant, dimeric); assay: cell-based or functional assay; remark: listed apart in the source
[10] = molecular target: T1, mature myostatin (recombinant, dimeric); assay: competition ELISA, directly coated myostatin, competitor 10B3
Procedure: as §2
The protocol set out in 6.7 was used but the plates were initially coated at 4° C. overnight with 0.2 μg/ml of myostatin (recombinant in-house, see 1.1 above). 10B3 (final concentration of 0.3 μg/ml) was added into each well and mixed with antibodies titrated out to a suitable concentration range (approximately 10 to 0.01 μg/ml). An anti-mouse HRP-conjugated antibody (DAKO P0260, used according to the manufacturer's instructions) was used to detect binding of the 10B3 antibody.

fold of affinity against F100G_Y [6] [fold] | ranking order top (1) to bottom (5), myostatin competition ELISA [7] | ranking order top (1) to bottom (5), myostatin competition ELISA [8] | Mean IC50, A204 in vitro activity assay (5 nM myostatin) [9] [nM] | ranking order top (1) to bottom (5), myostatin competition ELISA [10] | further results | Binder
 |  |  |  |  | Kd [1]: 15.1 nM; koff [1]: 0.00332 s⁻¹; kon [1]: 220000 M⁻¹ s⁻¹; Kd [2]: 2.42 nM; koff [2]: 0.000223 s⁻¹; kon [2]: 92200 M⁻¹ s⁻¹; Kd [3]: 5.06 nM; koff [3]: 0.000693 s⁻¹; kon [3]: 137000 M⁻¹ s⁻¹ | H1L2 (antibody, human IgG1, kappa, Humanised, human IgG1 wild type/kappa) heavy: not shown light: DIQMTQSPSSLSASVGDRVTITCKASQDINSYLSWFQQKPGKAPKSLIYRANRLVDGVPSKFSGSGSGTDYTLTISSLQPEDFATYYCLQCDEFPLTFGQGTKLEIKRTVAAPSVFIFPPSDEQLKSGTASVVCLLNNFYPREAKVQWKVDNALQSGNSQESVTEQDSKDSTYSLSSTLTLSKADYEKHKVYACEVTHQGLSSPVTKSFNRGEC
 |  |  |  |  | Kd [4]: 33.3 nM; Mean IC50, A204 in vitro activity assay [5]: 10.4 nM | H2L2 N54Q & C91S (H2L2-N54Q-C91S) (antibody, human IgG1, kappa, V domains shown) VH: QVQLVQSGAEVKKPGASVKVSCKASGYSFTGYFMHWVRQAPGQGLEWMGNIYPYQGVSNYNQRFKARVTMTTDTSTSTAYMELRSLRSDDTAVYYCARRYYYGTGPADWYFDVWGQGTLVTVSS VL: DIQMTQSPSSLSASVGDRVTITCKASQDINSYLSWFQQKPGKAPKSLIYRANRLVDGVPSKFSGSGSGTDYTLTISSLQPEDFATYYCLQSDEFPLTFGQGTKLEIKR
≤ 2 | 5 |  |  |  |  | H2L2-C91S_Y96L (antibody, human IgG1, kappa, name in Kabat numbering, V domains shown) VH: QVQLVQSGAEVKKPGASVKVSCKASGYSFTGYFMHWVRQAPGQGLEWMGNIYPYNGVSNYNQRFKARVTMTTDTSTSTAYMELRSLRSDDTAVYYCARRLYYGTGPADWYFDVWGQGTLVTVSS VL: DIQMTQSPSSLSASVGDRVTITCKASQDINSYLSWFQQKPGKAPKSLIYRANRLVDGVPSKFSGSGSGTDYTLTISSLQPEDFATYYCLQSDEFPLTFGQGTKLEIKR
≤ 2 | 1 | 3 | 4.22 | 4 |  | H2L2-C91S_V102S (antibody, human IgG1, kappa, name in Kabat numbering, V domains shown) VH: QVQLVQSGAEVKKPGASVKVSCKASGYSFTGYFMHWVRQAPGQGLEWMGNIYPYNGVSNYNQRFKARVTMTTDTSTSTAYMELRSLRSDDTAVYYCARRYYYGTGPADWYFDSWGQGTLVTVSS VL: DIQMTQSPSSLSASVGDRVTITCKASQDINSYLSWFQQKPGKAPKSLIYRANRLVDGVPSKFSGSGSGTDYTLTISSLQPEDFATYYCLQSDEFPLTFGQGTKLEIKR
 | 3 |  | 4.53 | 5 |  | H2L2-C91S_P100B_I (antibody, human IgG1, kappa, V domains shown) VH: QVQLVQSGAEVKKPGASVKVSCKASGYSFTGYFMHWVRQAPGQGLEWMGNIYPYNGVSNYNQRFKARVTMTTDTSTSTAYMELRSLRSDDTAVYYCARRYYYGTGIADWYFDVWGQGTLVTVSS VL: DIQMTQSPSSLSASVGDRVTITCKASQDINSYLSWFQQKPGKAPKSLIYRANRLVDGVPSKFSGSGSGTDYTLTISSLQPEDFATYYCLQSDEFPLTFGQGTKLEIKR
≤ 2 | 4 | 2 | 5.51 | 3 |  | H2L2-C91S_V102N (antibody, human IgG1, kappa, name in Kabat numbering, V domains shown) VH: QVQLVQSGAEVKKPGASVKVSCKASGYSFTGYFMHWVRQAPGQGLEWMGNIYPYNGVSNYNQRFKARVTMTTDTSTSTAYMELRSLRSDDTAVYYCARRYYYGTGPADWYFDNWGQGTLVTVSS VL: DIQMTQSPSSLSASVGDRVTITCKASQDINSYLSWFQQKPGKAPKSLIYRANRLVDGVPSKFSGSGSGTDYTLTISSLQPEDFATYYCLQSDEFPLTFGQGTKLEIKR
 |  | 1 | 4.24 | 1 |  | H2L2-C91S_P100B_F (antibody, human IgG1, kappa, V domains shown) VH: QVQLVQSGAEVKKPGASVKVSCKASGYSFTGYFMHWVRQAPGQGLEWMGNIYPYNGVSNYNQRFKARVTMTTDTSTSTAYMELRSLRSDDTAVYYCARRYYYGTGFADWYFDVWGQGTLVTVSS VL: DIQMTQSPSSLSASVGDRVTITCKASQDINSYLSWFQQKPGKAPKSLIYRANRLVDGVPSKFSGSGSGTDYTLTISSLQPEDFATYYCLQSDEFPLTFGQGTKLEIKR
≤ 2 |  |  |  |  |  | H2L2-C91S_G99S (antibody, human IgG1, kappa, name in Kabat numbering, V domains shown) VH: QVQLVQSGAEVKKPGASVKVSCKASGYSFTGYFMHWVRQAPGQGLEWMGNIYPYNGVSNYNQRFKARVTMTTDTSTSTAYMELRSLRSDDTAVYYCARRYYYSTGPADWYFDVWGQGTLVTVSS VL: DIQMTQSPSSLSASVGDRVTITCKASQDINSYLSWFQQKPGKAPKSLIYRANRLVDGVPSKFSGSGSGTDYTLTISSLQPEDFATYYCLQSDEFPLTFGQGTKLEIKR
≤ 2 |  |  |  |  |  | H2L2-C91S_G100A_K (antibody, human IgG1, kappa, V domains shown) VH: QVQLVQSGAEVKKPGASVKVSCKASGYSFTGYFMHWVRQAPGQGLEWMGNIYPYNGVSNYNQRFKARVTMTTDTSTSTAYMELRSLRSDDTAVYYCARRYYYGTKPADWYFDVWGQGTLVTVSS VL: DIQMTQSPSSLSASVGDRVTITCKASQDINSYLSWFQQKPGKAPKSLIYRANRLVDGVPSKFSGSGSGTDYTLTISSLQPEDFATYYCLQSDEFPLTFGQGTKLEIKR
≤ 2 |  | 5 |  |  |  | H2L2-C91S_G99D (antibody, human IgG1, kappa, name in Kabat numbering, V domains shown) VH: QVQLVQSGAEVKKPGASVKVSCKASGYSFTGYFMHWVRQAPGQGLEWMGNIYPYNGVSNYNQRFKARVTMTTDTSTSTAYMELRSLRSDDTAVYYCARRYYYDTGPADWYFDVWGQGTLVTVSS VL: DIQMTQSPSSLSASVGDRVTITCKASQDINSYLSWFQQKPGKAPKSLIYRANRLVDGVPSKFSGSGSGTDYTLTISSLQPEDFATYYCLQSDEFPLTFGQGTKLEIKR
